From PMC9079162 (Computational and Structural Biotechnology Journal, 2022)

Molecular target: human complement regulatory factor H (hfH) (human, UniProt P08603 19-1231)
Assay: SPR

Sequence of human complement regulatory factor H (hfH) (P08603 19-1231): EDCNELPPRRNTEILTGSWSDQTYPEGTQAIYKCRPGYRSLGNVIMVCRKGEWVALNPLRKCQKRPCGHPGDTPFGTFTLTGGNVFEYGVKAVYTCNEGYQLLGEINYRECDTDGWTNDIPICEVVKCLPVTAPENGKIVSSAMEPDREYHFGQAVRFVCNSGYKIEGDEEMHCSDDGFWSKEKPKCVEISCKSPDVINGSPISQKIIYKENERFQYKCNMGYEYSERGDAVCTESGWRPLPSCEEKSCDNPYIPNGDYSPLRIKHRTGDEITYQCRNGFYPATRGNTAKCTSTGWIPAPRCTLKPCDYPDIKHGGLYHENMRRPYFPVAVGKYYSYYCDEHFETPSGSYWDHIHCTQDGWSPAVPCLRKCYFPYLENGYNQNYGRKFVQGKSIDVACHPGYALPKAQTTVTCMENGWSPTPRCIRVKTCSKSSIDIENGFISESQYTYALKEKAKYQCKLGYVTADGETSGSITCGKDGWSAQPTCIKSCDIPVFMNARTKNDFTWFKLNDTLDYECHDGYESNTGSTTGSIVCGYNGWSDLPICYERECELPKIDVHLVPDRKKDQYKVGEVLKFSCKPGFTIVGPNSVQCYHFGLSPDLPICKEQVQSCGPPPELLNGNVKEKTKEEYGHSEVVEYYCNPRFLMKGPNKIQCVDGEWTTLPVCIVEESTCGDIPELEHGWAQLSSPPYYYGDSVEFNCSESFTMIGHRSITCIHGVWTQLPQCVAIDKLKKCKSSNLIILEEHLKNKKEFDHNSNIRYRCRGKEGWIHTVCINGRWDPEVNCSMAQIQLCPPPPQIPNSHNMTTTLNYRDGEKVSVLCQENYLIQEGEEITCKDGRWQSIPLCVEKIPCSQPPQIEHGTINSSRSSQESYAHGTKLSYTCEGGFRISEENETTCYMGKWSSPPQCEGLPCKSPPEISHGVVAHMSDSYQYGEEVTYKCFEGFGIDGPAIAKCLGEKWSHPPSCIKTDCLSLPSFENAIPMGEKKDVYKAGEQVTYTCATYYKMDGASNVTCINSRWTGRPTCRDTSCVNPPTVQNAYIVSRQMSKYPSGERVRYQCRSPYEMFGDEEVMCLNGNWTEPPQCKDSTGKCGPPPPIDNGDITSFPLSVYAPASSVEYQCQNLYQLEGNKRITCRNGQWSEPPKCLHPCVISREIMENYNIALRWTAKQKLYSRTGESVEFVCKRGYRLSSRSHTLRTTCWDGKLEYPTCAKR

B1: factor H binding protein (fHbp) variant1 (natural protein)
chain: CSSGGGGVAADIGAGLADALTAPLDHKDKGLQSLTLDQSVRKNEKLKLAAQGAEKTYGNGDSLNTGKLKNDKVSRFDFIRQIEVDGQLITLESGEFQVYKQSHSALTAFQTEQIQDSEHSGKMVAKRQFRIGDIAGEHTSFDKLPEGGRATYRGTAFGSDDAGGKLTYTIDFAAKQGNGKIEHLKSPELNVDLAAADIKPDGKRHAVISGSVLYNQAEKGSYSLGIFGGKAQEVAGSAEVKTVNGIRHIGLAAKQ
Q: With B1 as the binder, how does the Kd read?
A: 22.7 nM
